What was measured:
HLA-G4 = target: T1, HLA-G4 (human, UniProt P17693-4 25-246); experiment: intracellular flow cytometry, FITC-labeled antibody on permeabilised K562-HLA-G4 cells
T1 construct: also called HLA-G isoform standard protein HLA-G4; K562-HLA-G4
Description: (§1) The cell cultures expressing the K562 (blank control), K562-HLA-G1, K562-HLA-G2, K562-HLA-G3, K562-HLA-G4, K562-HLA-G5, K562-HLA-G6 and K562-HLA-G7 in the logarithmic growth phase were used. The detection was conducted by intracellular flow cytometry.
(§2) Detection of intracellular molecule expression by flow cytometry: The cell cultures of K562, K562-HLA-G1, K562-HLA-G2, K562-HLA-G3, K562-HLA-G4, K562-HLA-G5, K562-HLA-G6, K562-HLA-G7 were collected in test tubes, centrifuged and washed twice with 2% BSA/PBS (250 g), then 250 μL of cell membrane-breaking agent (BD Cytofix/Cytoperm™) was added, fully mixed, and placed in the refrigerator at 4° C. for 20 minutes. Then 1 ml of BD Perm/Wash™ was added to centrifuge and wash twice (250 g).

HLA-G5 = target: T2, HLA-G5 (human, UniProt P17693-5 25-319); experiment: intracellular flow cytometry, FITC-labeled antibody on permeabilised K562-HLA-G5 cells
T2 construct: also called HLA-G isoform standard protein HLA-G5; K562-HLA-G5
Description: as §1, §2

HLA-G6 = target: T3, HLA-G6 (human, UniProt P17693-6 25-227); experiment: intracellular flow cytometry, FITC-labeled antibody on permeabilised K562-HLA-G6 cells
T3 construct: also called HLA-G isoform standard protein HLA-G6; K562-HLA-G6
Description: as §1, §2

HLA-G7 = target: T4, HLA-G7 (human, UniProt P17693-7 25-116); experiment: immunoblot of standard proteins, antibody 1.0 µg/ml
T4 construct: also called HLA-G isoform standard protein HLA-G7; K562-HLA-G7
Description: After SDS-PAGE electrophoresis and transferred to PVDF membrane, the HLA-G isoform standard proteins HLA-G1, HLA-G2, HLA-G3, HLA-G4, HLA-G5, HLA-G6, HLA-G7 and HLA-G molecular standard proteins lacking al domain were blocked with 5% skimmed milk powder at room temperature for 4 hours, and washed with 0.2% TBS (Tween-20 PBS).

[1] = target: T5, immunogen peptide QTDRMNLQTLRGYYNQSEAS (positions 72-91 in the heavy chain α1 domain of the HLA-G molecule) (human); experiment: ELISA on coated peptide, 2-fold dilution series
T5 construct: Synthetic peptide, coated on the ELISA plate at 2 µg/ml; also called antigen
T5 peptide: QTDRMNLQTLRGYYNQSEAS
Description: (§3) The antigen (SEQ No.19 [sequence]) was diluted with coating solution to a final concentration of 2 μg/ml, 10 μL/well, overnight at 4° C.; then washed twice with the washing solution; blocked with the blocking solution at 200 μL/well, incubated at 37° C. for 2 hours; then washed once with the washing solution. The purified antibody was diluted gradiently with PBS by 2-fold starting from 200-fold, using PBS as the blank control, both 100 μL/well, incubated at 37° C. for 1 hour; and then washed 3 times with the washing solution. The secondary antibody diluted by 20,000-fold with PBS was added at 100 L/well, and incubated in a 37° C. incubator for 1 hour; taken out and washed 3 times with the washing solution. Then color development was performed with the developing solution at 100 μL/well for 5-15 minutes. Then 50 μL of stop solution was added, and the absorbance was measured at dual wavelengths (450, 630), and a plot was drawn for analysis.

[2] = target: T5, immunogen peptide QTDRMNLQTLRGYYNQSEAS …; experiment: ELISA on coated peptide, logistic fit, affinity constant = 150000 x dilution factor / antibody concentration
Description: as §3

HLA-G2 = target: T6, HLA-G2 (human, UniProt P17693-2 25-246); experiment: intracellular flow cytometry, FITC-labeled antibody on permeabilised K562-HLA-G2 cells
T6 construct: also called HLA-G isoform standard protein HLA-G2; K562-HLA-G2
Description: as §1, §2

HLA-G3 = target: T7, HLA-G3 (human, UniProt P17693-3 25-154); experiment: intracellular flow cytometry, FITC-labeled antibody on permeabilised K562-HLA-G3 cells
T7 construct: also called HLA-G isoform standard protein HLA-G3; K562-HLA-G3
Description: as §1, §2

B1: monoclonal antibody YWHG-1 against HLA-G molecule (antibody, V domains shown)
VH: QLQESGTVLVRPGASVKLSCKASGYIFTSYWINWVKQRPGQGLEWIGNIYPSDSYTNFNQKFEDKATLTVDTSSSTAYMQFSSPTSEDSAVYYCTRFGYPFDYWGQGTTLTVSS
VL: DIVITQDELSLTVSLGDQASISCRTSQSFVHSNGNIYLEWFLQKPGQSPKLLIYKVSSRFSGVPDRFSGSGSGTDFTLKISRVEAEDLGIYYCFQGSHVPPTFGGGTKLEIK
notes: FITC-labeled in the flow cytometry assay; also called hybridoma CCTCC NO: 202120
HLA-G4
  binding result: binds
HLA-G5
  binding result: binds
HLA-G6
  binding result: binds
HLA-G7
  binding result: binds
[1]
  antibody dilution factor corresponding to 1/2 OD value: 25600 fold dilution (of 1.9 mg/mL antibody)
[2]
  Ka: 2.02e+09 M⁻¹
HLA-G2
  binding result: binds
HLA-G3
  binding result: binds
